Measured values from patent publication US20240182592A1 (CHIA TAI TIANQING PHARMACEUTICAL GROUP, published 2024).

Assays:
human BCMA on cells [1] = biological target: T1, human BCMA on cells (human, UniProt Q02223 1-184); test: flow cytometry, MM1S cells
T1 construct: whole, on cells; also called CHO-hBCMA cells; U266 cells
T1 sequence (looked up): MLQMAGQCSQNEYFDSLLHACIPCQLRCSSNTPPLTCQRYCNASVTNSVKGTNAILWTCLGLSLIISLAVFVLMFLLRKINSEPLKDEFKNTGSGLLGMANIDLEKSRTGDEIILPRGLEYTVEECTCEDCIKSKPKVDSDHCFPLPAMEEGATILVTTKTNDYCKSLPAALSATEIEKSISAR
Method: (§1) NCI-H929 cells (BCMA+++), MM1S cells (BCMA++), and RPMI-8226 cells (BCMA+) in the logarithmic growth phase were taken, adjusted to a cell density of 5×10⁶-10×10⁶ cells/mL using RPMI medium (Hyclon, catalog No. SH30809.01) containing 2% FBS (fetal bovine serum), respectively, and seeded in a 96-well U-bottom cell culture plate (Costar, catalog No. 3799) at 50 μL per well. The test antibodies at different concentrations were prepared using the medium described above. […] The antibodies at different concentrations were added to the 96-well cell culture plate described above at 50 μL per well, mixed well and incubated at 4° C. for 1 h. The cells were washed with pre-cooled running buffer (MACS, catalog No. 130-091-221), and the supernatant was discarded. Pre-cooled fluorescent labeled goat anti-human IgG antibodies (Jackson, catalog No. 109-116-170) were added, and the cells were resuspended at 100 μL per well, mixed well and incubated at 4° C. for 30 min. After washing, 100 μL of pre-cooled running buffer was added to resuspend the cells. The cells were mixed well and collected while flowing on an Attune™ NxT flow cytometer, and the data was analyzed using Graphpad Prism5 software. FIGS. 7-9 and Table 11 show the binding ability of the anti-BCMA/anti-CD3 multispecific antibodies to NCI-H929 cells (BCMA+++), MM1S cells (BCMA++), and RPMI-8226 cells (BCMA+).

human BCMA on cells [2] = biological target: T1, human BCMA on cells; test: flow cytometry, NCI-H929 cells
Method: as §1

human BCMA protein = biological target: T2, human BCMA protein (human, UniProt Q02223 1-54, limits assumed); test: SPR (Biacore T200), antibody captured by anti-hIgG, human BCMA as analyte, 1:1 model
T2 construct: also called hBCMA; Antigen BCMA
T2 sequence (looked up): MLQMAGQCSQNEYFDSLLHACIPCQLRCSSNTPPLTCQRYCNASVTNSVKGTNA
Method: (§2) The affinity of the test antibody for human CD3e or human BCMA protein was determined by Biacore T200 (GE) as follows:
(§3) The response signals were detected in real time using Biacore software, and association and dissociation curves were obtained. The buffer used in the experiment was Biacore universal buffer (137 mM NaCl, 2.7 mM KCl, 10 mM Na₂HPO₄.12H₂O, 1.8 mM KH₂PO₄. 0.05% surfactant P-20 (w/v), pH 7.4). […] The flow rate in the flow cell was at 50 μL/min, the association was performed for 240 s, the dissociation was performed for 1400 s, the regeneration was performed using 3 M MgCl (GE) for 60 s, and the baseline was stable. Results were obtained by calculation according to the affinity and kinetics 1:1 binding mode in biacore evaluation software.

T cell surface CD3 = biological target: T3, T cell surface CD3 (human, UniProt P07766 23-207); test: flow cytometry, human CD3+ T cells
T3 construct: whole, on cells; also called CD3^+ T cells
Method: Human PBMC cells were sorted for CD3⁺ T cells using CD3 magnetic beads (Miltenyi, catalog No. 130-097-043): the cryopreserved PBMCs were thawed, and washed by centrifugation twice for counting. Running buffer (MACS, catalog No. 130-091-221) was added in a cell-to-buffer ratio of 10⁷:80 μL, CD3 beads were added in a cell-to-bead ratio of 10⁷:20 μL, and the mixture was mixed well and incubated at 4° C. for 15 min. The cells were washed with buffer in a cell-to-buffer ratio of 10⁷:1-2 mL. After centrifugation, the supernatant was discarded, and 500 μL of buffer was added to resuspend the cell pellet. The LS sorting column (Miltenyi, catalog No. 130-042-401) was placed on the MidiMACS Starting Kit (LS) magnetic rack (Miltenyi, catalog No. 130-091-051). After rinsing, the cell suspension was added and washed thrice. The LS sorting column was removed from the magnetic rack and placed on a clean centrifuge tube and 5 mL buffer was added to collect the sorted CD3⁺ T cells. After counting, the CD3⁺ T cells were adjusted to a cell density of 5×10⁶-10×10⁶ cells/mL using RPMI medium (Hyclone, catalog No. SH30809.01) containing 2% FBS (fetal bovine serum) and seeded in a 96-well U-bottom cell culture plate (Costar, catalog No. 3799) at 50 μL per well. The test antibodies at different concentrations were prepared using the medium described above. […] The antibodies at different concentrations were added to the 96-well cell culture plate described above at 50 μL per well, mixed well and incubated at 4° C. for 1 h. The cells were washed with pre-cooled running buffer (MACS, catalog No. 130-091-221), and the supernatant was discarded. Pre-cooled fluorescent labeled goat anti-human IgG antibodies (Jackson, catalog No. 109-116-170) were added, and the cells were resuspended at 100 μL per well, mixed well and incubated at 4° C. for 30 min. After washing, 100 μL of pre-cooled running buffer was added to resuspend the cells.

human BCMA on cells [3] = biological target: T1, human BCMA on cells; test: flow cytometry on RPMI-8226 cells, fluorescent goat anti-human IgG detection
Method: as §1

human BCMA on cells [4] = biological target: T1, human BCMA on cells; test: cell-based or functional assay
[5] = biological target: T4, human CD3e (Acro, Cat. No. CDE-H5223) (human, UniProt P07766 23-126); test: SPR (Biacore T200), antibody captured by anti-hIgG, human CD3e as analyte, 1:1 model
T4 construct: also called human CD3e protein; hCD3e
Method: as §2, §3

human BCMA on cells [6] = biological target: T1, human BCMA on cells; test: cell-based or functional assay; remark: listed apart in the source
human BCMA on cells [7] = biological target: T1, human BCMA on cells; test: cell-based or functional assay; remark: listed apart in the source

T3 sequence (P07766 23-207): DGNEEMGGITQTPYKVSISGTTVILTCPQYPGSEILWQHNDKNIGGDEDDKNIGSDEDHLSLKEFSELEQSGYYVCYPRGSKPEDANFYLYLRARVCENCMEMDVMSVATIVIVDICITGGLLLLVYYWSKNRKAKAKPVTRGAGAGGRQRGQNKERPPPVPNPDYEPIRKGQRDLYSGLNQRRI
T4 sequence (P07766 23-126 limits assumed): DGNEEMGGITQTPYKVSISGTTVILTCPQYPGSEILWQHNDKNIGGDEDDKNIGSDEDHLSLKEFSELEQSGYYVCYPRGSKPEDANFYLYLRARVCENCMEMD

B1: anti-BCMA/anti-CD3 multispecific antibody PC2 (bispecific antibody, human IgG1)
chain 1: QVQLVESGGGLVQPGGSLRLSCAASGYSSNVACMAWYRQAPGKGLEWVATIVADFGTTNYAASVKGRFTISQDNSKNTVYLQMNSLRAEDTAVYYCAATQRGGIDWCDEINYWGQGTLVTVSSGEPKSSDKTHTCPPCPAPEAAGGPSVFLFPPKPKDTLMISRTPEVTCVVVDVSHEDPEVKFNWYVDGVEVHNAKTKPREEQYNSTYRVVSVLTVLHQDWLNGKEYKCKVSNKALAAPIEKTISKAKGQPREPQVCTLPPSREEMTKNQVSLSCAVKGFYPSDIAVEWESNGQPENNYKTTPPVLDSDGSFFLVSKLTVDKSRWQQGNVFSCSVMHEALHNHYTQKSLSLSPGK
chain 2: QVQLVESGGGLVQPGGSLRLSCAASGFTFNSACMGWFRQAPGKGREGVSRIETGYGGTVYADSVKGRFTISRDNSKNTVYLQMNSLRAEDTAVYYCAAKRSWCTPTWWHELDYNYWGQGTQVTVSSGGGGSELVVTQEPSLTTSPGGTVTLTCRSSTGAVTTSNYANWVQQKPGQAPRGLIGGTNKRAPGTPARFSGSLLGGKAALTITGVQPEDEAEYYCALWYSNLWVFGGGTKLTVLGGGGSGGGGSGGGGSEVQLVESGGGLVQPGGSLRLSCAASGFTFNTYAMNWVRQAPGKGLEWVARIRSKYNNYATYYADSVKDRFTISRDDSKNTAYLQMNNLKTEDTAMYYCVRHGNFGNSYVSWFAYWGQGTLVTVSSGEPKSSDKTHTCPPCPAPEAAGGPSVFLFPPKPKDTLMISRTPEVTCVVVDVSHEDPEVKFNWYVDGVEVHNAKTKPREEQYNSTYRVVSVLTVLHQDWLNGKEYKCKVSNKALAAPIEKTISKAKGQPREPQVYTLPPCREEMTKNQVSLWCLVKGFYPSDIAVEWESNGQPENNYKTTPPVLDSDGSFFLYSKLTVDKSRWQQGNVFSCSVMHEALHNRFTQKSLSLSPGK
notes: Trivalent; two chains; human IgG1 knobs-into-holes Fc
Human BCMA on cells [1]
  EC50: 0.311 nM
  Top(MFI): 115000 MFI
Human BCMA on cells [2]
  EC50: 1.03 nM
  Top(MFI): 234000 MFI
Human BCMA protein
  Kd: 0.0185 nM
T cell surface CD3
  EC50: ~462 nM
  Top(MFI): 37200 MFI
Human BCMA on cells [3]
  EC50 (read off the curve): ~0.3 nM
Human BCMA on cells [4]
  Lysis EC50, NCI-H929 cells with human PBMCs (E:T 10:1, 24 h, LDH release): 0.527 nM
  Maximum lysis rate, NCI-H929 cells with human PBMCs: 38%
[5]
  Kd: 1.33 nM
Human BCMA on cells [6]
  Lysis EC50, RPMI-8226 cells with human PBMCs (E:T 10:1, 24 h, LDH release): 0.0185 nM
  Maximum lysis rate, RPMI-8226 cells with human PBMCs: 39%
Human BCMA on cells [7]
  Lysis EC50, MM1S cells with human PBMCs (E:T 10:1, 24 h, LDH release): 0.0605 nM
  Maximum lysis rate, MM1S cells with human PBMCs: 28%
